In patent publication US20050202450A1 (US Dept. of Health and Human Services, published 2005):

B4: Gal4-HIF1α(498-603) (other)
chain: MKLLSSIEQACDICRLKKLKCSKEKPKCAKCLKNNWECRYSPKTKRSPLTRAHLTEVESRLERLEQLFLLIFPREDLDMILKMDSLQDIKALLTGLFVQDNVNKDAVTDRLASVETDMPLTLRQHRISATSSSEESSNKGQRQLTVSTPSPSDGSTRQSSPEPNSPSEYCFYVDSDMVNEFKLELVEKLFAEDTEAKNPFSTQDTDLDLEMLAPYIPMDDDFQLRSFDQLSPLESSSASPESASPQSTVTVFQ
notes: also called Gal4-C-ODD; C-ODD

Experiments:
[1] = target: T1, VHL protein (endogenous, in Hep3B / 293 cell extracts) (UniProt P40337 1-213, limits assumed); assay: cell-based or functional assay
T1 sequence (P40337 whole entry, the tested form may be a part): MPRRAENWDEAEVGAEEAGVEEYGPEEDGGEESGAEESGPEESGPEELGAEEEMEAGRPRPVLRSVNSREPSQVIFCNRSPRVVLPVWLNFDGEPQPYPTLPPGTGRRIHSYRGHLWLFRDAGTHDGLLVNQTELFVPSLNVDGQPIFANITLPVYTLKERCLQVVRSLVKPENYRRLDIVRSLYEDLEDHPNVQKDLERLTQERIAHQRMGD

[2] = target: T2, VHL protein, HA-tagged, in vitro translated from p(HA)VHL (UniProt P40337 1-213); assay: in vitro co-immunoprecipitation with anti-VHL, 35S-labeled Gal4 fusion
T2 construct: not shown: HA tag
T2 sequence (P40337 whole entry, the tested form may be a part): as above

V5-tagged PHD2/HPH2 = target: T3, V5-tagged PHD2/HPH2 (human, UniProt Q9GZT9 1-426, limits assumed); assay: co-immunoprecipitation with anti-Gal4, Western blot with anti-V5, 293 cells with Cbz-LLL
T3 construct: V5/His-tagged expression plasmid; also called HIF prolyl-4-hydroxylase; not shown: V5/His tag
T3 sequence (Q9GZT9 whole entry, the tested form may be a part): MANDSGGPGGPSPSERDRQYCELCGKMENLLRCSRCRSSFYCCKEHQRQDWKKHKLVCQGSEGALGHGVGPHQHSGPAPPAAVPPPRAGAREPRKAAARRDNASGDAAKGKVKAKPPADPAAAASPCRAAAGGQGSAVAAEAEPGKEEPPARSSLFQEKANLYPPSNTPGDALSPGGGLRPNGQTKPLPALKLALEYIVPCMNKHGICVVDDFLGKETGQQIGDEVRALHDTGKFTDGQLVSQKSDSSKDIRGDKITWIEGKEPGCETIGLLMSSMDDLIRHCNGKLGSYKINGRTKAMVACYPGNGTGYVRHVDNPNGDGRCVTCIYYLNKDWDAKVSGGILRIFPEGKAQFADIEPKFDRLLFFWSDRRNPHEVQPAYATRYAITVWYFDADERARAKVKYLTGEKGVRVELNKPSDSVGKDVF

V5-tagged PHD1/HPH3 = target: T4, V5-tagged PHD1/HPH3 (human, UniProt Q96KS0 1-407, limits assumed); assay: as above
T4 construct: V5/His-tagged expression plasmid; not shown: V5/His tag
T4 sequence (Q96KS0 whole entry): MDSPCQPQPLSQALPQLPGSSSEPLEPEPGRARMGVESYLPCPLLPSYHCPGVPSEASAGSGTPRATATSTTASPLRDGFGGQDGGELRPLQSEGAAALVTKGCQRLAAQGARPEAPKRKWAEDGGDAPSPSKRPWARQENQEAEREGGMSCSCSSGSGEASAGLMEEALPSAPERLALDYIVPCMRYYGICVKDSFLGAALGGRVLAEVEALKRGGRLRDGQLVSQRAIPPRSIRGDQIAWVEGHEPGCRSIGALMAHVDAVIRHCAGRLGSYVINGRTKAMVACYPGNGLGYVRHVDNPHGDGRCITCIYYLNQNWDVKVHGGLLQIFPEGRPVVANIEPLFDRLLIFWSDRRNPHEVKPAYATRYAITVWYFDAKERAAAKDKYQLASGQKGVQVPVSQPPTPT

Gal4-HIF1α(498-603) = target: B4; assay: as above
[3] = target: T1, VHL protein (endogenous, in Hep3B / 293 …); assay: EMSA super-shift with anti-VHL, transfected 293 cells

B1: Gal4-HIF1α(498-574) (other)
chain: MKLLSSIEQACDICRLKKLKCSKEKPKCAKCLKNNWECRYSPKTKRSPLTRAHLTEVESRLERLEQLFLLIFPREDLDMILKMDSLQDIKALLTGLFVQDNVNKDAVTDRLASVETDMPLTLRQHRISATSSSEESSNKGQRQLTVSTPSPSDGSTRQSSPEPNSPSEYCFYVDSDMVNEFKLELVEKLFAEDTEAKNPFSTQDTDLDLEMLAPYIPMDDDFQL
Q: Which “Gal4 luciferase reporter activity (Hep3B cells), in comparison to Gal4-HIF1α(498-573)” value [1] does the source give for B1 here?
A: 6.5 fold decrease

Q: What about the “protein levels under normoxia (Western blot, 293 cells), in comparison to Gal4-HIF1α(498-573)” value [1] of the same binder?
A: ~3 fold decrease

B2: Gal4-HIF1α(498-603)L574S (other, not shown: large carriers; small tags and cut ends)
chain: TPSPSDGSTRQSSPEPNSPSEYCFYVDSDMVNEFKLELVEKLFAEDTEAKNPFSTQDTDLDLEMLAPYIPMDDDFQSRSFDQLSPLESSSASPESASPQSTVTVFQ
notes: also called Gal4-C-ODD L574S mutant
Q: How did the “Gal4 luciferase reporter activity (Hep3B cells) under oxygenated conditions, in comparison to the wild-type” value [1] turn out when B2 was run?
A: 4.3 fold increase

Q: What about the “expression level (Western blot, 293 cells), in comparison to Gal4-HIF1α(498-603)” value [1] of the same binder?
A: 7 fold increase

Q: Does B2 bind [2]?
A: no binding

Q: Does B2 bind (V5-tagged PHD2/HPH2)?
A: no binding

B3: Gal4-HIF1α(498-574)L574S (other, not shown: large carriers; small tags and cut ends)
chain: TPSPSDGSTRQSSPEPNSPSEYCFYVDSDMVNEFKLELVEKLFAEDTEAKNPFSTQDTDLDLEMLAPYIPMDDDFQS
Q: Does B3 bind [2]?
A: no binding

Q: Does B4 bind (V5-tagged PHD1/HPH3)?
A: no binding

B5: V5-tagged PHD3/HPH1 (enzyme, human, UniProt Q9H6Z9 1-239, looked up)
chain: MPLGHIMRLDLEKIALEYIVPCLHEVGFCYLDNFLGEVVGDCVLERVKQLHCTGALRDGQLAGPRAGVSKRHLRGDQITWIGGNEEGCEAISFLLSLIDRLVLYCGSRLGKYYVKERSKAMVACYPGNGTGYVRHVDNPNGDGRCITCIYYLNKNWDAKLHGGILRIFPEGKSFIADVEPIFDRLLFFWSDRRNPHEVQPSYATRYAMTVWYFDAEERAEAKKKFRNLTRKTESALTED
notes: V5/His-tagged expression plasmid; not shown: V5/His tag
Q: Does B5 bind (Gal4-HIF1α(498-603))?
A: no binding

B6: Gal4-HIF1α(530-573) (other)
chain: MKLLSSIEQACDICRLKKLKCSKEKPKCAKCLKNNWECRYSPKTKRSPLTRAHLTEVESRLERLEQLFLLIFPREDLDMILKMDSLQDIKALLTGLFVQDNVNKDAVTDRLASVETDMPLTLRQHRISATSSSEESSNKGQRQLTVSEFKLELVEKLFAEDTEAKNPFSTQDTDLDLEMLAPYIPMDDDFQ
Q: Does B6 bind [2]?
A: no binding

Q: Does B6 bind [3]?
A: no binding

B7: Gal4-HIF1α(574-603) (other)
chain: MKLLSSIEQACDICRLKKLKCSKEKPKCAKCLKNNWECRYSPKTKRSPLTRAHLTEVESRLERLEQLFLLIFPREDLDMILKMDSLQDIKALLTGLFVQDNVNKDAVTDRLASVETDMPLTLRQHRISATSSSEESSNKGQRQLTVSLRSFDQLSPLESSSASPESASPQSTVTVFQ
Q: Does B7 bind [2]?
A: no binding

B8: Gal4-HIF1α(401-603) with Pro-564 mutated to alanine (other, not shown: large carriers; small tags and cut ends)
chain: APAAGDTIISLDFGSNDTETDDQQLEEVPLYNDVMLPSPNEKLQNINLAMSPLPTAETPKPLRSSADPALNQEVALKLEPNPESLELSFTMPQIQDQTPSPSDGSTRQSSPEPNSPSEYCFYVDSDMVNEFKLELVEKLFAEDTEAKNPFSTQDTDLDLEMLAAYIPMDDDFQLRSFDQLSPLESSSASPESASPQSTVTVFQ
Q: Does B8 bind [2]?
A: no binding
